{
  "source": "patent US20210371499A1",
  "about": "(University of California, published 2021)",
  "binders": {"B1": {"name": "TAPasin Binding Protein Related (TAPBPR), luminal domain, His6-tagged (other)", "chain": "KPHPAEGQWRAVDVVLDCFLAKDGAHRGALASSEDRARASLVLKQVPVLDDGSLEDFTDFQGGTLAQDDPPIIFEASVDLVQIPQAEALLHADCSGKEVTCEISRYFLQMTETTVKTAAWFMANMQVSGGGPSISLVMKTPRVTKNEALWHPTLNLPLSPQGTVRTAVEFQVMTQTQSLSFLLGSSASLDCGFSMAPGLDLISVEWRLQHKGRGQLVYSWTAGQGQAVRKGATLEPAQLGMARDASLTLPGLTIQDEGTYICQITTSLYRAQQIIQLNIQASPKVRLSLANEALLPTLICDIAGYYPLDVVVTWTREELGGSPAQVSGASFSSLRQSVAGTYSISSSLTAEPGSAGATYTCQVTHISLEEPLGASTQVVPPERR", "notes": "domain: luminal domain; Molecular chaperone; also called TAPBR; HIS-Tagged TAPBPR; not shown: His6 tag"}},
  "target": "l[…]/HLA-A*02:01 (l = D-leucine) (human)",
  "assay": "SEC TAPBPR binding assay",
  "data": [
    {"binder": "B1", "values": [
      {"measurement": "binding result", "result": "no binding"}
    ]}
  ]
}
